Measured values published in patent publication US20230329245A1, “COMPOSITIONS AND METHODS OF USE THEREOF” (Curie Co. Inc., priority 2020, published 2023).
“And” between values parts separate entries of the source, which are not always exact repeats. Equal entries are not always repeated.

Tests used:
Assay type in all cases: cell-based
E. coli ATCC 8739 = experiment: Growth inhibition of E. coli culture in LB (OD600 / BacTiter-Glo); conditions: E. coli ATCC 8739; 950 μg/mL
Procedure: For MIC determination of bacterial cultures, E. coli ATCC 8739, DH5-alpha, DH10-beta, and B. subtilis BGSC 1A1276 was grown overnight (16-18 hours) in LB broth at 37° C. The following day, the cell density of the saturated cultures was calculated using OD600 and cultures were diluted to 10^4 to 10^6 CFU/mL in sterile LB media to generate the inoculum, and 90 μL of the inoculum was combined with 10 μL of serially diluted Tgase SEQ ID NO:1 at a range of 0.0001-0.01 weight percent in the presence or absence of 0.003% lysozyme (100-fold lower than the effective concentration). Growth curves were measured by OD600 on a BioTek® Synergy Plate Reader. Optionally, the following day, a cell viability assay such as BacTiter-Glo™ (Promega®) following manufacturer's protocols) could be used to assess cell viability. A decrease in OD600 or luminescence indicated a decrease in cell viability. Results are presented as a percent reduction in cell count relative to an untreated culture. All test conditions were performed in triplicate.
E. coli ATCC 8739 was grown overnight in LB broth at 37° C. The following day, the cell density of the saturated cultures was calculated using OD600 and cultures were diluted to 10^4 to 10^6 CFU/mL in sterile LB media to generate the inoculum, and 90 μL of the inoculum was combined with 10 μL of serially diluted Tgase SEQ ID NO:6 at a range of 0.001-0.1 weight percent in the presence or absence of chemical preservatives at concentrations above and below the calculated MIC value. A single concentration (at the MIC) of the chemical preservative and static concentrations of Tgase SEQ ID NO:6 (400 μg/mL, 0.04% w/v) are presented in Table 8 as representative examples. Growth curves were measured by OD600 on a BioTek® Synergy Plate Reader and a cell viability assay (BacTiter-Glo™, Promega®, following manufacturer's protocols) was used to assess cell viability. A decrease in OD600 or luminescence indicated a decrease in cell viability. Results are presented as a percent reduction in cell count relative to an untreated culture. […]

S. aureus ATCC 6538 = experiment: MIC determination, S. aureus; conditions: CAMHB pH 7.3, 37° C., 18 to 20 hours, duplicate
Procedure: A variant form of Streptomyces mobaraensis transglutaminase having the amino acid sequence depicted in SEQ ID NO:6 was prepared by literature methods with a hexa-his-tag to aid in purification (Javitt, et al. (2017) BMC Biotechnol. 17:23). The cells were grown in shake flasks, lysed by homogenization, and the Tgase variant (SEQ ID NO:6) was isolated from the cell debris by centrifugation. The resulting semi-purified enzyme (clarified lysate) were compared on an SDS-PAGE gel, by spectroscopy, and activity for concentration of active enzyme. The Tgase variant (SEQ ID NO:6) was further purified by affinity column on a Ni-IMAC resin prior to MIC assay. Tgase activity was measured in the examples herein using a colorimetric hydroxamate activity assay (Folk and Cole (1965) J Biol Chemistry 240(7):2951-2960). The enzyme was diluted to a working stock concentration of 2 mg/mL in CAMHB or RPMI media (bacterial or fungal media). This was then 2-fold serial diluted ten times in the appropriate media in a 96-well master plate to generate 2× starting concentrations for MIC testing.
Strains were acquired from the American Type Culture Collection (ATCC) (Manassas, VA) and maintained as −80° C. frozen glycerol stocks: S. aureus ATCC 6538, E. coli ATCC 8739, P. aeruginosa ATCC 9027, C. albicans ATCC 10231, and A. brasiliensis ATCC 16404. […]

[1] = test system: A. brasiliensis ATCC 16404; experiment: Minimum fungicidal concentration (MFC), A. brasiliensis; conditions: no colonies recovered on SDA, duplicate
Procedure: (§1) Minimum fungicidal concentration (MFC) was determined by plating 10 microliters of liquid from each MFC test solution on the appropriate agar media for each test strain. The liquid was allowed to air dry in a biosafety cabinet, then the agar plates were incubated under the appropriate conditions: A. brasiliensis and C. albicans were grown on Sabouraud Dextrose Agar (SDA) plates. A. brasiliensis was grown at 25° C. for 5 to 7 days, while C. albicans was grown at 37° C. for 24 to 48 hours. Colony formation was then assessed. MFC is defined as the lowest concentration of the Tgase (SEQ ID NO:6) in which no colonies were recovered.

C. albicans ATCC 10231 = experiment: Minimum fungicidal concentration (MFC), C. albicans; conditions: no colonies recovered on SDA, duplicate, listed as Tgase variant (SEQ ID NO: 6)
Procedure: as §1

[2] = test system: Yeast or bacterial starter cultures; experiment: Tgase biocidal activity on yeast or bacterial cultures (Example 2); conditions: where biocidal activity could be observed with both enzymes
Procedure: A variant form of Streptomyces mobaraensis transglutaminase having the amino acid sequence depicted in SEQ ID NO:6 was prepared by literature methods (Javitt, et al. (2017) BMC Biotechnol. 17:23) as previously described. Tgase activity was measured using the colorimetric hydroxamate activity assay (Folk and Cole (1965) J Biol Chemistry 240(7):2951-2960). Tgase cytotoxic activity was assessed either using OD600 or a commercially available kit (BacTiter-Glo™, Promega®, following manufacturer's protocol).
Yeast or bacterial starter cultures were grown as described previously. Tgase (SEQ ID NO:6) was added to each culture at 0.001-1 weight percent. The cultures were grown overnight at 30° C.-37° C. and growth curves were measured by a BioTek® Synergy Plate Reader.

B1: Tgase (SEQ ID NO: 6): variant Streptomyces mobaraensis transglutaminase (SEQ ID NO:2) with N-terminal Methionine, C-terminal peptide linker and hexa-His-Tag (protein)
chain: MDPDDRVTPPAEPLDRMPDPYRPSYGRAETVVNNYIRKWQQVYSHRDGRKQQMTEEQREWLSYGCVGVTWVNSGQYPTNRLAFASFDEDRFKNELKNGRPRSGETRAEFEGRVAKESFDEEKGFQRAREVASVMNRALENAHDESAYLDNLKKELANGNDALRNEDARSPFYSALRNTPSFKERNGGNHDPSRMKAVIYSKHFWSGQDRSSSADKRKYGDPDAFRPAPGTGLVDMSRDRNIPRSPTSPGEGFVNFDYGWFGAQTEADADKTVWTHGNHYHAPNGSLGAMHVYESKFRNWSEGYSDFDRGAYVITFIPKSWNTAPDKVKQGWPLEHHHHHH
growth inhibition (E. coli ATCC 8739): 85.0% | MIC (S. aureus ATCC 6538): >1,000 μg/mL | MFC [1]: 125 µg/mL | MFC (C. albicans ATCC 10231): 31.25 µg/mL and 62.5 µg/mL | potency relative to Tgase SEQ ID NO:1 [2]: 10 fold
